test system: Bacillus subtilis; assay: cleaved RNA product abundance (RNA/gDNA barcode ratio) relative to median wild-type variant (ratio to wild type); higher = more accumulation of the downstream cleavage product; details: experiment (reporter, strain, medium): exp 8a: truncated aprE reporter, strain BJT201 with 2% xylose (RNase J1 expressed); cleavage site: glnRA (positions -5 to +31 mutated)
How it was run: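 Cleaved product abundance is expressed as the RNA:gDNA barcode ratio per construct, scaled to the median construct carrying the unmutated site. The constructs were barcoded, mutagenized RNase Y cleavage-site windows in truncated aprE or tetM reporter mRNAs integrated into the B. subtilis chromosome. Cultures grew in LB at 37°C from OD600 0.0003 to 0.3 before cleaved RNA was gel-selected and barcode-sequenced.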

In order of falling “cleaved RNA product abundance” value:
1. CGACATGTCCCGCTTCTTTCATTAATCCGTTGGCAATTGTTTTGCTATATACATTTACCTTTTAAGAGGAGGAAT  1.12
2. CGACATGTCCCGCTTCTTTCATTAATCCGTTTGCAACTGTTTTGCTATATACATTTACCATTTAAGAGGAGGAAT  0.88
3. CGACATGTCCCGCTTCTTTCATTAATCCGTTTGCAACTGTTTTACTATATACATTTACCTTTTAAGAGGAGGAAT  0.879
4. CGACATGTCCCGCTTCTTTCATTAATCCGTTGGCAACTATTTTGCTATATACATTTACCTTTTAAGAGGAGGAAT  0.866
5. CGACATGTCCCGCTTCTTTCATTAATCCGTTTGCAACTATTTTGCTATATACATTTACCTTTTAAGAGGAGGAAT  0.859
6. CGACATGTCCCGCTTCTTTCATTAATCCGTTTGCAACTGTTTTGCTATATACATTGACCTTTTAAGAGGAGGAAT  0.837
7. CGACATGTCCCGCTTCTTTCATTAATCCGTTTGCAACTGTTTTGCTATATACATTTAACTTTTAAGAGGAGGAAT  0.827
8. CGACATGTCCCGCTTCTTTCATTAATCCGTTTGCAACTGTTTTTCTATATACATTTACCTTTTAAGAGGAGGAAT  0.768
9. CGACATGTCCCGCTTCTTTCATTAATCCGTTGGCAACTGTTTTGCTATATACATTTACCTTTTAAGAGGAGGAAT  0.739
10. CGACATGTCCCGCTTCTTTCATTAATCCGTTGGCAACTGATTTGCTATATACATTTACCTTTTAAGAGGAGGAAT  0.729
11. CGACATGTCCCGCTTCTTTCATTAATCCGTTTGCAACTGTTTTGCTATATACATTTACGTTTTAAGAGGAGGAAT  0.661
12. CGACATGTCCCGCTTCTTTCATTAATCCGTTTGCAACTGTTTTGCTATATACATTTACATTTTAAGAGGAGGAAT  0.626
13. CGACATGTCCCGCTTCTTTCATTAATCCGTTTGCAACTGTTTTGCTACATACATTTACCTTTTAAGAGGAGGAAT  0.623
14. CGACATGTCCCGCTTCTTTCATTAATCCGTTGGCAACTGTTTTGCTATATACATTTACTTTTTAAGAGGAGGAAT  0.61
15. CGACATGTCCCGCTTCTTTCATTAATCCTTTAGCAAATGTTTTGCTATATACATTTACCTTTTAAGAGGAGGAAT  0.608
16. CGACATGTCCCGCTTCTTTCATTAATCCTTGAGCAACTGTTTTGCTATATACATTTACCTTTTAAGAGGAGGAAT  0.57
17. CGACATGTCCCGCTTCTTTCATTAATCCGTTTGCAACTGTTTTGCTATATACATTTACTTTTTAAGAGGAGGAAT  0.552
18. CGACATGTCCCGCTTCTTTCATTAATCCGTTTGCAACTGTTTTGCTATATACATTTACCTTTTAAGAGGAGGAAT  0.549
19. CGACATGTCCCGCTTCTTTCATTAATCCGTTTGCAATTGTTTTGCTATATACATTTACCTTTTAAGAGGAGGAAT  0.536
20. CGACATGTCCCGCTTCTTTCATTAATCCGTTTGCAACTGTTTAGCTATATACATTTACCTTTTAAGAGGAGGAAT  0.517
21. CGACATGTCCCGCTTCTTTCATTAATCCGTTTGCAACTGATTTGCTATATACATTTACCTTTTAAGAGGAGGAAT  0.51
22. CGACATGTCCCGCTTCTTTCATTAATCCGTTGGCAACTGTTTTGCTATAAACATTTACCTTTTAAGAGGAGGAAT  0.509
23. CGACATGTCCCGCTTCTTTCATTAATCCTCTAGCAACTGTTTTGCTATATACATTTACCTTTTAAGAGGAGGAAT  0.492
24. CGACATGTCCCGCTTCTTTCATTAATCCGTTTGCAACTCTTTTGCTATATACATTTACCTTTTAAGAGGAGGAAT  0.483
25. CGACATGTCCCGCTTCTTTCATTAATCCGTTTGCAACTGTTTTGCTATATACAATTACCTTTTAAGAGGAGGAAT  0.478
26. CGACATGTCCCGCTTCTTTCATTAATCCGTTTGCAACTGTTTTGCTATATACATATACCTTTTAAGAGGAGGAAT  0.478
27. CGACATGTCCCGCTTCTTTCATTAATCCTTCAGCAACTGTTTTGCTATATACATTTACCTTTTAAGAGGAGGAAT  0.478
28. CGACATGTCCCGCTTCTTTCATTAATCCTATAGCAACTGTTTTGCTATATACATTTACCTTTTAAGAGGAGGAAT  0.458
29. CGACATGTCCCGCTTCTTTCATTAATCCGTTTGCAAATGTTTTGCTATATACATTTACCTTTTAAGAGGAGGAAT  0.446
30. CGACATGTCCCGCTTCTTTCATTAATCCGTTTGCAACTGTTATGCTATATACATTTACCTTTTAAGAGGAGGAAT  0.428
31. CGACATGTCCCGCTTCTTTCATTAATCCGTTTGCAACTGTTTTGATATATACATTTACCTTTTAAGAGGAGGAAT  0.421
32. CGACATGTCCCGCTTCTTTCATTAATCCGTTCGCAACAGTTTTGCTATATACATTTACCTTTTAAGAGGAGGAAT  0.419
33. CGACATGTCCCGCTTCTTTCATTAATCCTTAAGCAACTGTTTTGCTATATACATTTACCTTTTAAGAGGAGGAAT  0.419
34. CGACATGTCCCGCTTCTTTCATTAATCCGTTCGCAACTGTTTTACTATATACATTTACCTTTTAAGAGGAGGAAT  0.418
35. CGACATGTCCCGCTTCTTTCATTAATCCGTTCGCAACTGTTTTGTTATATACATTTACCTTTTAAGAGGAGGAAT  0.411
36. CGACATGTCCCGCTTCTTTCATTAATCCGTTATTAACTGTTTTACTATATACATTTACCTTTTAAGAGGAGGAAT  0.408
37. CGACATGTCCCGCTTCTTTCATTAATCCGTTCCCAACTGTTTTGCTATATACATTTACCTTTTAAGAGGAGGAAT  0.392
38. CGACATGTCCCGCTTCTTTCATTAATCCGTTTGAAACTGTTTTGCTATATACATTTACCTTTTAAGAGGAGGAAT  0.388
39. CGACATGTCCCGCTTCTTTCATTAATCCGTTTGCAACTGTTTTGCTATACACATTTACCTTTTAAGAGGAGGAAT  0.386
40. CGACATGTCCCGCTTCTTTCATTAATCCGTTCGCAACTTTTTTGCTATATACATTTACCTTTTAAGAGGAGGAAT  0.381
41. CGACATGTCCCGCTTCTTTCATTAATCCGTTGGCAACTGTTTAGCTATATACATTTACCTTTTAAGAGGAGGAAT  0.38
42. CGACATGTCCCGCTTCTTTCATTAATCCGTTCGCAACTGTTATGCTATATACATTTACCTTTTAAGAGGAGGAAT  0.349
43. CGACATGTCCCGCTTCTTTCATTAATCCGTTCGAAACTGTTTTGCTATATACATTTACCTTTTAAGAGGAGGAAT  0.347
44. CGACATGTCCCGCTTCTTTCATTAATCCGTTCGCAACTGTTTTGCTATATACATTTACCTTTTAAGAGGAGGAAT  0.345
45. CGACATGTCCCGCTTCTTTCATTAATCCGTTCGCAACTGTTTTGCTATATACATTTACGTTTTAAGAGGAGGAAT  0.342
46. CGACATGTCCCGCTTCTTTCATTAATCCGTTATTAACTGTTTTGCTATATACATTTACCTTTTAAGAGGAGGAAT  0.337
47. CGACATGTCCCGCTTCTTTCATTAATCCGTTCGCAACTGTTTTGATATATACATTTACCTTTTAAGAGGAGGAAT  0.334
48. CGACATGTCCCGCTTCTTTCATTAATCCGTTCGCAACTGTTTTGCTATATATATTTACCTTTTAAGAGGAGGAAT  0.324
49. CGACATGTCCCGCTTCTTTCATTAATCCGTTCGCAATTGTTTTGCTATATACATTTACCTTTTAAGAGGAGGAAT  0.31
50. CGACATGTCCCGCTTCTTTCATTAATCCGTTTGCACCTGTTTTGCTATATACATTTACCTTTTAAGAGGAGGAAT  0.295
51. CGACATGTCCCGCTTCTTTCATTAATCCGTTTGCAACTGTTTTGCTAAATACATTTACCTTTTAAGAGGAGGAAT  0.289
52. CGACATGTCCCGCTTCTTTCATTAATCCGTTTACAACTGTTTTGCTATATACATTTACCTTTTAAGAGGAGGAAT  0.276
53. CGACATGTCCCGCTTCTTTCATTAATCCGTTTGCATCTGTTTTGCTATATACATTTACCTTTTAAGAGGAGGAAT  0.274
54. CGACATGTCCCGCTTCTTTCATTAATCCGTTGCCAACTGTTTTGCTATATACATTTACCTTTTAAGAGGAGGAAT  0.264
55. CGACATGTCCCGCTTCTTTCATTAATCCGTTATCGACTGTTTTGCTATATACATTTACCTTTTAAGAGGAGGAAT  0.257
56. CGACATGTCCCGCTTCTTTCATTAATCCGTTATGAACTGTTTTGCTATATACATTTACCTTTTAAGAGGAGGAAT  0.252
57. CGACATGTCCCGCTTCTTTCATTAATCCGTTTTCAACTGTTTTGCTATATACATTTACCTTTTAAGAGGAGGAAT  0.247
58. CGACATGTCCCGCTTCTTTCATTAATCCGTTCACAACTGTTTTGCTATATACATTTACCTTTTAAGAGGAGGAAT  0.224
59. CGACATGTCCCGCTTCTTTCATTAATCCGTTTGCAACTGTTTTGCTATCTACATTTACCTTTTAAGAGGAGGAAT  0.203
60. CGACATGTCCCGCTTCTTTCATTAATCCTTTAAAAAGTGTTTTGCTATATACATTTACCTTTTAAGAGGAGGAAT  0.182
61. CGACATGTCCCGCTTCTTTCATTAATCCTTTAGAAACTGTTTTGCTATATACATTTACCTTTTAAGAGGAGGAAT  0.18
62. CGACATGTCCCGCTTCTTTCATTAATCCTTTAACAACTGTTTTGCTATATACATTTACCTTTTAAGAGGAGGAAT  0.154
63. CGACATGTCCCGCTTCTTTCATTAATCCTTAGCACCTGTTTTGCTATATACATTATCCTTTTAAGAGGAGGAATT  0.144
64. CGACATGTCCCGCTTCTTTCATTAATCCTTTACCAACTGTTTTGCTATATACATTTACCTTTTAAGAGGAGGAAT  0.125
65. CGACATGTCCCGCTTCTTTCATTAATCCGTTCGCAACTGTTTTGCTATAAACATTTACCTTTTAAGAGGAGGAAT  0.122
66. CGACATGTCCCGCTTCTTTCATTAATCCGTTGGCAACTGTTTTGCTATGTACATTTACCTTTTAAGAGGAGGAAT  0.1

Source: the supplement of paper PMC11780869
